{"source": "the nanobody polyreactivity screen of Harvey et al. (2022)", "data": [{"assay": "yeast display, Sf9 membrane polyspecificity reagent, FACS + sequencing; frameworks hold sequencing errors", "method_in_brief": "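Using colony PCR, genes from sorted yeast display clones were amplified, then sequenced on MiSeq at 2 × 250 and filtered by CDR length. The clones had been stained with 10% biotinylated, detergent-solubilized Sf9 membrane reagent for 1 hour at 4 °C and sorted by FACS into low and high (top ~1%) gates on anti-HA and streptavidin fluorescence. Polyreactivity labels come from the gate of origin.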", "values": [{"sequence": "QVQLVESGGGLVQAGGSLRLSCAASGSIFDLNVMGWYRQAPGKERELVAAITWSGGSTYYADSVKGRFTISRDNAKNTVYLQMNSLKPEDTAVDYCAADTASGDTLRPTLLYDYWGQGTQVTVSS", "polyreactivity (PSR sort gate)": "low polyreactivity"}, {"sequence": "QVQLVESGGGLVQAGGSLRLSCAASGSIFDLYDMGWYRQAPGKERELVAAISLIGGSTSYADSVKGRFTISRDNAKNTVYLQMNSLKPEDTAVYYCAVEKFFRAEYDHWGQGTQVTVSS", "polyreactivity (PSR sort gate)": "low polyreactivity"}, {"sequence": "QVQLVESGGGLVQAGGSLRLSCAASGSIFDPNAMGWYRQAPGKERELVAVITWSSSSTYYADSVKGRFTISRDNAKNTVYLQMNSLKPEDTAVYYCAAVVQGTTVWWGYDYWGQGTLVTVSS", "polyreactivity (PSR sort gate)": "low polyreactivity"}, {"sequence": "QVQLVESGGGLVQAGGSLRLSCAASGSIFDRNAMGWYRQAPGKERELVAAISRSSGNTYYADSVKGRFTISRDNAKNTVYLQMNSLNPEDTAVYYCNKAVSYGTYKYYYWGQGTQVTVSS", "polyreactivity (PSR sort gate)": "high polyreactivity"}, {"sequence": "QVQLVESGGGLVQAGGSLRLSCAASGSIFDRYAMGWYRQAPGKDRELVAAITWSGGSTRYADSVNGRFTISRDNAKNTVYLQMNILKPEDTAVYYCPASSTRWKVYYWGQGTQVTVSS", "polyreactivity (PSR sort gate)": "high polyreactivity"}, {"sequence": "QVQLVESGGGLVQAGGSLRLSCAASGSIFDSNAMGWYRQAPGKERELVASIDRGGDTNYADSVKGRFTISRDNAKNTVYLQMNSLKPEDTAVYYCAAYYYKWVWIGMDYWGQGTQVTVSS", "polyreactivity (PSR sort gate)": "low polyreactivity"}, {"sequence": "QVQLVESGGGLVQAGGSLRLSCAASGSIFDSYAMGWSRQAPGKERELVAAISWSGGSTYYADSVKGRFTISRDNAKNTVSLQMNSLKPEDTAVYYCNTDWADYYYYTDYDYWGQGTQVTVSS", "polyreactivity (PSR sort gate)": "high polyreactivity"}, {"sequence": "QVQLVESGGGLVQAGGSLRLSCAASGSIFDSYAMGWYRQAPGKERELVADITSDGSTHYADSVKGRFTISRDNAKNSVYLQMNSLKPEDTAVYYCAAALPLVDFYDYWGQGTQVTVSS", "polyreactivity (PSR sort gate)": "low polyreactivity"}, {"sequence": "QVQLVESGGGLVQAGGSLRLSCAASGSIFDTNAMGWYRQAPGKERELVAAINDSGGSTDYADSVKGRFTISRDNAKNTVYLQMNSLKPEDTAVYYCAADIYYTGYNGPEYYWVGMDYWGQGTQVTVSS", "polyreactivity (PSR sort gate)": "low polyreactivity"}, {"sequence": "QVQLVESGGGLVQAGGSLRLSCAASGSIFDTYAMGWYRQAPGKERELVAAIRQSGARTYYADSVKGRFTISRDKAKNTVYLQMNSLKPEDTAVYYCAVSYHHYQTWYNYWGQGTQVTVSS", "polyreactivity (PSR sort gate)": "high polyreactivity"}, {"sequence": "QVQLVESGGGLVQAGGSLRLSCAASGSIFDTYAMGWYRQAPGKERELVAAITQSGDRTYYADSVKGRFTISRDNAKNTVYLQMNSLKPEDTAVYYCNTRRGSAWSSDYWGQGTQVTVSS", "polyreactivity (PSR sort gate)": "low polyreactivity"}, {"sequence": "QVQLVESGGGLVQAGGSLRLSCAASGSIFDTYAMGWYRQAPGKERELVATITRSGARTYYADSVKGRFTISRDNAKITVYLQMNSLKTEDTAVYYCAALYYDDFGYEYDYWGQGTQVTVSS", "polyreactivity (PSR sort gate)": "low polyreactivity"}, {"sequence": "QVQLVESGGGLVQAGGSLRLSCAASGSIFDTYAMGWYRQAPGKERELVATITRSGARTYYADSVKGRFTISRDNAKNTVYLQMNSLKPEDTAVYYCAALYYDDFGYEYDYWGQGTQVTVSS", "polyreactivity (PSR sort gate)": "low polyreactivity"}, {"sequence": "QVQLVESGGGLVQAGGSLRLSCAASGSIFDTYVMGWYRQAPGKERELVAAISSVSSTYADSVKGRFTISRDNAKNTVYLQLNSLKPVDTAVYYCAADSRSPGHDYWGQGTQVTVSS", "polyreactivity (PSR sort gate)": "low polyreactivity"}, {"sequence": "QVQLVESGGGLVQAGGSLRLSCAASGSIFDVNAMGRYRQAPGKERELVAAISDSGGSTYYADSVKGRFTISRDNAKNTVYLQMNSLKPEDTAVYYCNADWSWYNYYDFDYWGQGTQVTVSS", "polyreactivity (PSR sort gate)": "low polyreactivity"}, {"sequence": "QVQLVESGGGLVQAGGSLRLSCAASGSIFDVNAMGWYRQAPGKERELVAAITSSGGSTYYADSVKGRFTISRDNAKNTVYLQMNSLKPEDTAVYYCAAYSLYTMYWGQGTQVTVSS", "polyreactivity (PSR sort gate)": "low polyreactivity"}, {"sequence": "QVQLVESGGGLVQAGGSLRLSCAASGSIFDVNGMGWYRQAPGKERELVATISSDGSTNYADSVKGRFTISRDNAKNTVYLQMNSLKPEDTAVYYCAADRHQVSVISTEVYWGQGTQVTVSS", "polyreactivity (PSR sort gate)": "low polyreactivity"}, {"sequence": "QVQLVESGGGLVQAGGSLRLSCAASGSIFDVYAMGWYRPAPGKEREFVATITTSGGNTYYADSVKGRFTISRDHAKNTVHLQMNSLKPEDTAVYYCAKDRVKSPYLVYDSWGQGTQGTVSS", "polyreactivity (PSR sort gate)": "low polyreactivity"}, {"sequence": "QVQLVESGGGLVQAGGSLRLSCAASGSIFDWNAMGWYRKAPGKERELVASITGSGGGTNYADSVKGRFTISRDNAKNTVYLQMNSLKPEDTAVYYCAAEVDYSYWPEYARKYYYWGQGTQVTVSS", "polyreactivity (PSR sort gate)": "low polyreactivity"}, {"sequence": "QVQLVESGGGLVQAGGSLRLSCAASGSIFDWYAMGWYRQAPGKEGELVAAISSGDSTYYADSVKGRFTISRDNAKITVYLQMNSLKPEDTAVYDCAAEFHDDHPSFDYWGQGTQVTVSS", "polyreactivity (PSR sort gate)": "low polyreactivity"}, {"sequence": "QVQLVESGGGLVQAGGSLRLSCAASGSIFDWYAMGWYRQAPGKEGELVAAISSGDSTYYADSVKGRFTISRDNAMNTVYLQMNSLKPEDTAVYYCAAVTKLSGIRYNYWGQGTQVTVSS", "polyreactivity (PSR sort gate)": "low polyreactivity"}, {"sequence": "QVQLVESGGGLVQAGGSLRLSCAASGSIFDWYAMGWYRQAPGKERELVAAIDSSGSSTYYADSVKGRFTISRDNAKNTVYLQMNSLKPEDNAVYYCAADSDWIRDWFGSLYGSDYWGQGSQVTVSS", "polyreactivity (PSR sort gate)": "low polyreactivity"}, {"sequence": "QVQLVESGGGLVQAGGSLRLSCAASGSIFDWYDMGWYRQAPGKEGELVAAISSGDSTYYADSVKGRFTISRDNAKNTVYLQMNSLKPEDTAVYYCAAVTKLSGIRYNYWGQGTQVTVSS", "polyreactivity (PSR sort gate)": "low polyreactivity"}, {"sequence": "QVQLVESGGGLVQAGGSLRLSCAASGSIFDYNAMGWYTQAPGKERELVAAITSGGSTNYADSVKGRFTISRDNAKNTVYLQMNTLKPEDTAVYYCAADHDYYPTNLDYWGQGTQVTVSS", "polyreactivity (PSR sort gate)": "low polyreactivity"}, {"sequence": "QVQLVESGGGLVQAGGSLRLSCAASGSIFDYNSMGMYIQAPGKERELVAAISSGGTTYYADSVKGRFTISLDNAKNTVYLHIKSLKPEDTDVYYCAARRAGWWGFYYWGQCTQVTVSS", "polyreactivity (PSR sort gate)": "high polyreactivity"}, {"sequence": "QVQLVESGGGLVQAGGSLRLSCAASGSIFDYNVMGWYRKAPGKERELVAAITYNDGSTYYADSVKGRFTISRDNAKNTVYLQMNSLKPEDTAVYYCAADYPGGGIYWYFYVYDYDYWGQGTQVTVSS", "polyreactivity (PSR sort gate)": "low polyreactivity"}, {"sequence": "QVQLVESGGGLVQAGGSLRLSCAASGSIFDYYAMGWYRPAPGKERELVAAISDSGGSTYYADSVKGRFTISRDNAKNTVYLQMNSLKPEDTAVYYCNAVPRYQATWQESYDYDYWGQGTQVTVSS", "polyreactivity (PSR sort gate)": "high polyreactivity"}, {"sequence": "QVQLVESGGGLVQAGGSLRLSCAASGSIFDYYAMGWYRQAPGKERELVASISWIGDRTYYADSVKGRFTISRDNAKNTVYLQMNSLKPEDTAVYYCATDYYEDWRGYEVYWYRPYDYWGQGTQVSVSS", "polyreactivity (PSR sort gate)": "high polyreactivity"}, {"sequence": "QVQLVESGGGLVQAGGSLRLSCAASGSIFDYYAMGWYRQAPGKERELVSTYYADSVKGRFTISRDNAKNTVYLQMNSLKPEDTAVYYCAKDRGTTGIRDGPAASLYGYEYWGQGTQVTVSS", "polyreactivity (PSR sort gate)": "low polyreactivity"}, {"sequence": "QVQLVESGGGLVQAGGSLRLSCAASGSIFEFNAMGWYRQAHGKERELVSAITWSGTSTYYADSVKGRFTISRDNAKNTVYLQMKSLKPEDTAVYYCGADSTDYFYWGQGTQVTVSS", "polyreactivity (PSR sort gate)": "high polyreactivity"}, {"sequence": "QVQLVESGGGLVQAGGSLRLSCAASGSIFEGNGMGWYIQAPGKERELVAAITFRSGSTYYADSVKGRFTISLDNAKNTVYLQMNSLKPEDTAVYYCAADEYYQVSAYDYWGQGTQVTVSS", "polyreactivity (PSR sort gate)": "low polyreactivity"}, {"sequence": "QVQLVESGGGLVQAGGSLRLSCAASGSIFEKYAMGWYRQAPGKERELVASISKRGGSTNYADSVKGRFTISRDNAKNTVYLQMNSLKPVDTAVYYCAAPANRWSTRWYYDGYDYWGQGTQVTVSS", "polyreactivity (PSR sort gate)": "high polyreactivity"}, {"sequence": "QVQLVESGGGLVQAGGSLRLSCAASGSIFENYAMGWYRQAPGKERELVAAITSSGASTYYADSVKGHFTISRDNEKNTVYIQMNILKPEDTAVYYCAADSAFYDEYQEDYWGQGTQVTVSS", "polyreactivity (PSR sort gate)": "low polyreactivity"}, {"sequence": "QVQLVESGGGLVQAGGSLRLSCAASGSIFEPNAMGWYRQAPGKVRELVAAITSGGTTYADSVKGRFTISRDNAKNTVYLQMNSLKPEETAVYYCAADYSFVYYYPFDYWGQGTQVTVSS", "polyreactivity (PSR sort gate)": "low polyreactivity"}, {"sequence": "QVQLVESGGGLVQAGGSLRLSCAASGSIFEPNAMVWYRQAPGKERELVAVISIDGITYYADSVKGRFTISRDNAKNSVYLQMNSLKPEDTAVYYCAAYLGQGESYGAYDYWGQGTQVTVSS", "polyreactivity (PSR sort gate)": "low polyreactivity"}, {"sequence": "QVQLVESGGGLVQAGGSLRLSCAASGSIFEQNVMGWYRQAPGKERELVAAITRGGSTNYADSVKGRFTISRDNAKNTVYLQMNSLKPEDTAVYYCAKRRWLGPSTLDYWGQGTQVTVSS", "polyreactivity (PSR sort gate)": "low polyreactivity"}, {"sequence": "QVQLVESGGGLVQAGGSLRLSCAASGSIFERYAMGWYRPAPGKERELVAGISSDGSTYADSVKGRFTISRDNAKNTVFLQMNSLKPEDTAVYYCAAAAWDPKGSRYDYWGQGTQVTVSS", "polyreactivity (PSR sort gate)": "low polyreactivity"}, {"sequence": "QVQLVESGGGLVQAGGSLRLSCAASGSIFESYAMGWYRQAPGKERELVADITYDGGITYYADSVKGRFTISRDNAKNTVYLQLNSLKPEDTAVYYCAAQAWWGYYSRGPMDYWGQGTQVTVSS", "polyreactivity (PSR sort gate)": "low polyreactivity"}, {"sequence": "QVQLVESGGGLVQAGGSLRLSCAASGSIFESYVMGWYRQAPGKERELVAAISSGGSTYYADSVKGRFTISRDNAKNTVYLQMNSLKPEDTAVYYCAANYDGGYLDYEAGYRLEYDYWGQGTQVTVSS", "polyreactivity (PSR sort gate)": "low polyreactivity"}, {"sequence": "QVQLVESGGGLVQAGGSLRLSCAASGSIFEVYAMGWYRQAPGKERELVAAISGNGGSTYADSVKGRFTISRDNAKNTVYLQMNSLKPEDTAVYYCAAVPYGYGLASDSIFDYWGQGTQVTVSS", "polyreactivity (PSR sort gate)": "high polyreactivity"}, {"sequence": "QVQLVESGGGLVQAGGSLRLSCAASGSIFEYNAMGWYRQAPWKERELVAAITSGGSTNYADSVKGRFTISRDNAKNTVYLQMNSLKPEDTAVYYCAKKYRSVPKYLYRITKYNYWGQGTQVTVSS", "polyreactivity (PSR sort gate)": "low polyreactivity"}, {"sequence": "QVQLVESGGGLVQAGGSLRLSCAASGSIFEYYAMGWYRQAPGKERELVASITSSGTTYYADSVKGRFTISRDNAKNTVYLQMNSLKPEDTAVYYCAAYFAYLDSYVTYEYDYWGQGTQVTVSS", "polyreactivity (PSR sort gate)": "low polyreactivity"}, {"sequence": "QVQLVESGGGLVQAGGSLRLSCAASGSIFEYYAMGWYRQAPGKERELVATITGTDSTYYADSVKGRFTISRDNAKNTVYLQMNSLKPEDTADCAADRAASRPDYDYWGQGTQVTVSS", "polyreactivity (PSR sort gate)": "low polyreactivity"}]}]}
